Measured values reported in patent US20180346602A1.
Positions count from the first letter of the chain named. Each block holds one binder with its values, some of them ahead of it.

Key:
[1] = biological target: target antibodies; experiment: depletion of target antibody from sample; concentration before depletion 100.00 µg/mL
[2] = biological target: anti-VEGF/ANG2 antibody (IgG1 subclass with mutations P329G/L234A/L235A) [IgG part: P01857]; experiment: sandwich ELISA assay E; tracer M1.7.10-Dig; analyte 2) at 25 ng/mL
[3] = biological target: target antibodies; experiment: depletion of target antibody from sample; concentration before depletion 0.30 µg/mL
[4] = biological target: anti-VEGF/ANG2 antibody (IgG1 subclass with mutations P329G/L234A/L235A/I253A/H310A/H435A) [IgG part: P01857]; experiment: sandwich ELISA assay E; tracer M1.7.10-Dig; analyte 1) at 6.25 ng/mL
[5] = biological target: anti-P-Selectin antibody (IgG4 subclass with mutations S228P/L235E) (human) [IgG part: P01861]; experiment: sandwich ELISA assay B; capture on SA plate; tracer M1.7.10-Dig; analyte 13 ng/mL
[6] = biological target: anti-VEGF/ANG2 antibody (IgG1 subclass with mutations P329G/L234A/L235A/I253A/H310A/H435A) (human) [IgG part: P01857]; experiment: as above
[7] = biological target: anti-IGF-1R antibody (IgG1 subclass with mutations I253A/H310A/H435A) (human) [IgG part: P01857]; experiment: as above
[8] = biological target: anti-VEGF/ANG2 antibody (IgG1 subclass with mutations P329G/L234A/L235A) (human) [IgG part: P01857]; experiment: as above
[9] = biological target: anti-Dig antibody (IgG1 subclass with mutations P329G/L234A/L235A) [IgG part: P01857]; experiment: sandwich ELISA assay D; tracer M1.19.31-Dig; analyte conc. not printed (row 6 of 8)
[10] = biological target: anti-VEGF/ANG2 antibody (IgG1 subclass with mutations P329G/L234A/L235A) [IgG part: P01857]; experiment: sandwich ELISA assay E; tracer M1.7.10-Dig; analyte 2) at 0 ng/mL (blank)
[11] = biological target: anti-Dig antibody (IgG1 subclass with mutations P329G/L234A/L235A) [IgG part: P01857]; experiment: sandwich ELISA assay D; tracer M1.19.31-Dig; analyte conc. not printed (row 4 of 8)
[12] = biological target: target antibodies; experiment: depletion of target antibody from sample; concentration before depletion 30.00 µg/mL
[13] = biological target: anti-Dig antibody (IgG1 subclass with mutations P329G/L234A/L235A) [IgG part: P01857]; experiment: sandwich ELISA assay D; tracer M1.19.31-Dig; analyte conc. not printed (row 7 of 8)
[14] = biological target: anti-Dig antibody (IgG1 subclass with mutations P329G/L234A/L235A) [IgG part: P01857]; experiment: sandwich ELISA assay D; tracer M1.7.10-Dig; analyte conc. not printed (row 5 of 8)
[15] = biological target: anti-VEGF/ANG2 antibody (IgG1 subclass with mutations P329G/L234A/L235A/I253A/H310A/H435A) [IgG part: P01857]; experiment: sandwich ELISA assay E; tracer M1.7.10-Dig; analyte 1) at 100 ng/mL
[16] = biological target: anti-VEGF/ANG2 antibody (IgG1 subclass with mutations P329G/L234A/L235A/I253A/H310A/H435A) [IgG part: P01857]; experiment: sandwich ELISA assay E; tracer M1.7.10-Dig; analyte 1) at 0 ng/mL (blank)
[17] = biological target: anti-Dig antibody (IgG1 subclass with mutations P329G/L234A/L235A) [IgG part: P01857]; experiment: sandwich ELISA assay D; tracer M1.7.10-Dig; analyte conc. not printed (row 3 of 8)
[18] = biological target: anti-VEGF/ANG2 antibody (IgG1 subclass with mutations P329G/L234A/L235A/I253A/H310A/H435A) [IgG part: P01857]; experiment: sandwich ELISA assay E; tracer M1.7.10-Dig; analyte 1) at 25 ng/mL
[19] = biological target: anti-Dig antibody (IgG1 subclass with mutations P329G/L234A/L235A) [IgG part: P01857]; experiment: sandwich ELISA assay D; tracer M1.7.10-Dig; analyte conc. not printed (row 2 of 8)
[20] = biological target: target antibodies; experiment: depletion of target antibody from sample; concentration before depletion 3.00 µg/mL
[21] = biological target: anti-VEGF/ANG2 antibody (wild-type IgG1 subclass) (human) [IgG part: P01857]; experiment: sandwich ELISA assay C; capture on SA plate; tracer FcγRI-Dig; analyte 6 ng/mL
[22] = biological target: anti-VEGF/ANG2 antibody (wild-type IgG1 subclass) (human) [IgG part: P01857]; experiment: sandwich ELISA assay C; capture on SA plate; tracer FcγRI-Dig; analyte 3 ng/mL
[23] = biological target: anti-VEGF/ANG2 antibody (wild-type IgG1 subclass) (human) [IgG part: P01857]; experiment: sandwich ELISA assay C; capture on SA plate; tracer FcγRI-Dig; analyte 0 ng/mL (blank)
[24] = biological target: anti-VEGF/ANG2 antibody (wild-type IgG1 subclass) (human) [IgG part: P01857]; experiment: sandwich ELISA assay B; capture on SA plate; tracer M1.7.10-Dig; analyte 100 ng/mL
[25] = biological target: anti-VEGF/ANG2 antibody (wild-type IgG1 subclass) (human) [IgG part: P01857]; experiment: sandwich ELISA assay B; capture on SA plate; tracer M1.7.10-Dig; analyte 50 ng/mL

concentration after depletion [1]: 0.0173 µg/mL
recovery [%] [1]: 0.017%
signal [OD405 nm] [2]: 1.48 OD405 nm
concentration after depletion [3]: 0.0002 µg/mL
recovery [%] [3]: 0.065%
signal [OD405 nm] [4]: 0.677 OD405 nm
signal [OD405 nm] [5]: 0.047 OD405 nm
signal [OD405 nm] [6]: 0.034 OD405 nm
signal [OD405 nm] [7]: 0.044 OD405 nm
signal [OD405 nm] [8]: 0.217 OD405 nm
signal 10% cynomolgus serum [OD405 nm] [9]: 0.082 OD405 nm
signal 10% human serum [OD405 nm] [9]: 1.67 OD405 nm
signal buffer [OD405 nm] [9]: 0.033 OD405 nm
signal [OD405 nm] [10]: 0.027 OD405 nm
signal 10% cynomolgus serum [OD405 nm] [11]: 0.162 OD405 nm
signal 10% human serum [OD405 nm] [11]: 1.73 OD405 nm
signal buffer [OD405 nm] [11]: 0.037 OD405 nm
concentration after depletion [12]: 0.008 µg/mL
recovery [%] [12]: 0.027%
signal 10% cynomolgus serum [OD405 nm] [13]: 0.075 OD405 nm
signal 10% human serum [OD405 nm] [13]: 1.71 OD405 nm
signal buffer [OD405 nm] [13]: 0.033 OD405 nm
signal 10% cynomolgus serum [OD405 nm] [14]: 0.096 OD405 nm
signal 10% human serum [OD405 nm] [14]: 2.49 OD405 nm
signal buffer [OD405 nm] [14]: 0.031 OD405 nm
signal [OD405 nm] [15]: 2.29 OD405 nm
signal [OD405 nm] [16]: 0.027 OD405 nm
signal 10% cynomolgus serum [OD405 nm] [17]: 0.485 OD405 nm
signal 10% human serum [OD405 nm] [17]: 2.51 OD405 nm
signal buffer [OD405 nm] [17]: 0.037 OD405 nm
signal [OD405 nm] [18]: 1.6 OD405 nm
signal 10% cynomolgus serum [OD405 nm] [19]: 1.18 OD405 nm
signal 10% human serum [OD405 nm] [19]: 2.55 OD405 nm
signal buffer [OD405 nm] [19]: 0.038 OD405 nm
concentration after depletion [20]: 0.0023 µg/mL
recovery [%] [20]: 0.078%
B1: anti-variant (human) Fc-region antibody M1.3.17 (antibody, V domains shown)
VH: EVKLLESGGGLVQPGGSLKLSCAASGIDFRRYWMNWVRQAPGKGLEWIGEIDPDSSTINYTPSLKDKFIISRDNAKNTMYLQMRKVRSEDTALYYCARPYDYGAWFAYWGQGTLVTVSA
VL: QAVVTQESALTTSPGETVTLTCRSTTGAVTTSNYANWVQEKPDHLFTGLIGGTNKRAPGVPARFSGSLIGDKAALTITGAQTEDEAIYFCALWYSDHWVFGGGTKLTVL

signal [OD405 nm] [2]: 1.39 OD405 nm
signal [OD405 nm] [21]: 0.057 OD405 nm
signal [OD405 nm] [4]: 0.64 OD405 nm
signal [OD405 nm] [5]: 0.037 OD405 nm
signal [OD405 nm] [6]: 0.053 OD405 nm
signal [OD405 nm] [7]: 0.043 OD405 nm
signal [OD405 nm] [8]: 3.15 OD405 nm
signal [OD405 nm] [22]: 0.053 OD405 nm
signal 10% cynomolgus serum [OD405 nm] [9]: 0.049 OD405 nm
signal 10% human serum [OD405 nm] [9]: 1.36 OD405 nm
signal buffer [OD405 nm] [9]: 0.033 OD405 nm
signal [OD405 nm] [10]: 0.028 OD405 nm
signal 10% cynomolgus serum [OD405 nm] [11]: 0.173 OD405 nm
signal 10% human serum [OD405 nm] [11]: 1.43 OD405 nm
signal buffer [OD405 nm] [11]: 0.037 OD405 nm
signal 10% cynomolgus serum [OD405 nm] [13]: 0.039 OD405 nm
signal 10% human serum [OD405 nm] [13]: 1.39 OD405 nm
signal buffer [OD405 nm] [13]: 0.033 OD405 nm
signal 10% cynomolgus serum [OD405 nm] [14]: 0.094 OD405 nm
signal 10% human serum [OD405 nm] [14]: 2.41 OD405 nm
signal buffer [OD405 nm] [14]: 0.031 OD405 nm
signal [OD405 nm] [15]: 2.31 OD405 nm
signal [OD405 nm] [16]: 0.025 OD405 nm
signal 10% cynomolgus serum [OD405 nm] [17]: 0.575 OD405 nm
signal 10% human serum [OD405 nm] [17]: 2.48 OD405 nm
signal buffer [OD405 nm] [17]: 0.039 OD405 nm
signal [OD405 nm] [18]: 1.55 OD405 nm
signal [OD405 nm] [23]: 0.073 OD405 nm
signal [OD405 nm] [24]: 0.047 OD405 nm
signal 10% cynomolgus serum [OD405 nm] [19]: 1.41 OD405 nm
signal 10% human serum [OD405 nm] [19]: 2.61 OD405 nm
signal buffer [OD405 nm] [19]: 0.046 OD405 nm
signal [OD405 nm] [25]: 0.04 OD405 nm
B2: anti-variant (human) Fc-region antibody M1.7.24 (antibody, V domains shown)
VH: B1 VH with I27F, R30S, D52T, M79L, R84I, A97V, Y108S
VL: B1 VL with T25S, D96N

concentration after depletion [1]: 0.0143 µg/mL
recovery [%] [1]: 0.014%
concentration after depletion [3]: 0.0001 µg/mL
recovery [%] [3]: 0.039%
signal [OD405 nm] [21]: 0.064 OD405 nm
signal [OD405 nm] [5]: 0.042 OD405 nm
signal [OD405 nm] [6]: 0.041 OD405 nm
signal [OD405 nm] [7]: 2.85 OD405 nm
signal [OD405 nm] [8]: 0.066 OD405 nm
signal [OD405 nm] [22]: 0.069 OD405 nm
concentration after depletion [12]: 0.0054 µg/mL
recovery [%] [12]: 0.018%
signal [OD405 nm] [23]: 0.069 OD405 nm
signal [OD405 nm] [24]: 0.061 OD405 nm
signal [OD405 nm] [25]: 0.049 OD405 nm
concentration after depletion [20]: 0.0023 µg/mL
recovery [%] [20]: 0.008%
B3: anti-AAA variant Fc-region antibody M1.6.22 (antibody, V domains shown)
VH: EVQLVESGGDLVKPGGSLKLSCAASGFTFSSYGMSWVRQTPDKRLEWVATISSGGSYIYYPDSVKGRFTISRDNAKNTLYLQMSSLKSEDTAMYYCARLGMITTGYAMDYWGQGTSVTVSS
VL: DVLMTQTPLSLPVSLGDQASISCRSSQTIVHSTGHTYLEWFLQKPGQSPKLLIYKVSNRFSGVPDRFSGSGSGTDFTLKISRVEAEDLGVYYCFQGSHVPYTFGGGTKLEIK
